According to US5663314:

Key:
Band-3 peptide = molecular target: T1, Band-3 peptide
T1 sequence (peptide): MEELQDDYEDDMEERR

ETE peptide = molecular target: T2, ETE peptide
T2 sequence (peptide): RRREEETEEE

RR-SRC peptide = molecular target: T3, RR-SRC peptide
T3 sequence (peptide): RRLIEDAEYAARG

[1] = molecular target: Recombinant ERK2 expressed in E. coli (Rattus norvegicus (Rat)) (UniProt P63086)
S6 peptide = molecular target: T4, S6 peptide
T4 sequence (peptide): RRLSSLRA

Syntide-2 = molecular target: T5, Syntide-2
T5 sequence (peptide): PLARTLSVAGLPGKK

TEY peptide = molecular target: T6, TEY peptide
T6 sequence (peptide): PEHDHTGFLTEYVATRWYR

[2] = molecular target: bovine myelin basic protein (bovine) (UniProt P02687)
bovine myelin basic protein (bovine), sequence (P02687 whole entry): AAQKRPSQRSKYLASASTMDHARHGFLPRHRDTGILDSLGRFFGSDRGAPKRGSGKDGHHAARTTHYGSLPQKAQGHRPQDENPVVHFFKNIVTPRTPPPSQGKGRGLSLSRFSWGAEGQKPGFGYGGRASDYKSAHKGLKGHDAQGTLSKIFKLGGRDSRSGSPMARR

Phosphorylation (Band-3 peptide): < 0.005 nmol/min/mg
Phosphorylation (Casein): < 0.005 nmol/min/mg
Phosphorylation (Denatured enolase): < 0.005 nmol/min/mg
Phosphorylation (ETE peptide): < 0.005 nmol/min/mg
Phosphorylation (Histones): 0.02 nmol/min/mg
Phosphorylation (Kemptide): < 0.005 nmol/min/mg
Phosphorylation (RR-SRC peptide): < 0.005 nmol/min/mg
Phosphorylation [1]: 150 nmol/min/mg
Phosphorylation (Ribosomal S6 protein): < 0.005 nmol/min/mg
Phosphorylation (S6 peptide): < 0.005 nmol/min/mg
Phosphorylation (Syntide-2): < 0.005 nmol/min/mg
Phosphorylation (TEY peptide): 0.04 nmol/min/mg
Phosphorylation [2]: 0.1 nmol/min/mg
Substance: MAPK activator 1 (MAPKK1a), 46 kDa polypeptide purified from EGF-stimulated A431 cells (enzyme)
